Experimental data taken from US20150045540A1 (published 2015).
Numbering of substitutions follows the chain as printed.

T1: Placenta Growth Factor (PlGF), human (human, UniProt P49763 21-149)
T1 chain: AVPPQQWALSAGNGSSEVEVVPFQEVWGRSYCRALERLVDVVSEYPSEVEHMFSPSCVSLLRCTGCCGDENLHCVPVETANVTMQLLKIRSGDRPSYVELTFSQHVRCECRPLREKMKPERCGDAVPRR

T2: VEGF (Example 4) (UniProt P15692 27-191)
T2 chain: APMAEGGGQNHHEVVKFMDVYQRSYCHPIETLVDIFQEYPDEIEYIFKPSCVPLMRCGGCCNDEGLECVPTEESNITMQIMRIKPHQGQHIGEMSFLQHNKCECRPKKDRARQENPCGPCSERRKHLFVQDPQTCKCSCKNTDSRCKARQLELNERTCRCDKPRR

B1: HC 4/SLC 8 (antibody)
chain 1: GQGTLVTVSSASTKQPVLHQPPAMSSALGTTIRLTCTLRNDHDIGVYSVYWYQQRPGHPPRFLLRYFSQSDKSQGPQVPPRFSGSKDVARNRGYLSISELQPEDEAMYYCAMGARSRCWPRGFQSKHNSVTHVFGSGTQLTVLSQPKATPSVTLFPPSSEELQANKATLVCLMNDFYPGILTVTWKADGTPITQGVEMTTPSKQSNNKYAASSYLSLTPEQWRSRRSYSCQVMHEGSTVEKTVAPAECS
chain 2: MSWAPVLLMLFVYCTGCGPQPVLHQPPAMSSALGTTIRLTCTLRNDHDIGVYSVYWYQQRPGHPPRFLLRYFSQSDKSQGPQVPPRFSGSKDVARNRGYLSISVTHVFGSGTQLTVLSQPKATPSQVQLVQ
B2: HC 7/SLC 2 (antibody)
chain 1: GQGTLVTVSSASTKGPSQPVLHQPPAMSSALGTTIRLTCTLRNDHDIGVYSVYWYQQRPGHPPRFLLRYFSQSDKSQGPQVPPRFSGSKDVARNRGYLSISELQPEDEAMYYCAMGARSRCWPRGFQSKHNSVTHVFGSGTQLTVLSQPKATPSVTLFPPSSEELQANKATLVCLMNDFYPGILTVTWKADGTPITQGVEMTTPSKQSNNKYAASSYLSLTPEQWRSRRSYSCQVMHEGSTVEKTVAPAECS
chain 2: MSWAPVLLMLFVYCTGCGPQPVLHQPPAMSSALGTTIRLTCTLRNDHDIGVYSVYWYQQRPGHPPRFLLRYFSQSDKSQGPQVPPRFSGSKDVARNRGYLSISVTHVFGSGTQLTVLSQQVQLVQ
B3: 2 (antibody, V domains shown)
V domain 1: FQPVLHQPPAMSSALGTTIRLTCTLRNDHDIGVYSVYWYQQRPGHPPRFLLRYFSQSDKSQGPQVPPRFSGSKDVARNRGYLSISELQPEDEAMYYCAMGARSSVTHVFGSGTQLTVLS
V domain 2: QPVLHQPPAMSSALGTTIRLTCTLRNDHDIGVYSVYWYQQRPGHPPRFLLRYFSQSDKSQGPQVPPRFSGSKDVARNRGYLSISELQPEDEAMYYCAMGARSSVTHVFGSGTQLTVLS
B4: 5 (antibody, V domains shown)
V domain 1: B3 V domain 1 with F1P
V domain 2: B3 V domain 2
B5: 6 (antibody, V domains shown)
V domain 1: B3 V domain 1 with F1P
V domain 2: B3 V domain 2
B6: 7 (antibody, V domains shown)
V domain 1: B3 V domain 1 with F1P
V domain 2: B3 V domain 2
B7: 4 (antibody, V domains shown)
V domain 1: B3 V domain 1
V domain 2: B3 V domain 2
B8: 3 (antibody, V domains shown)
V domain 1: B3 V domain 1
V domain 2: B3 V domain 2

Target: T1, Placenta Growth Factor (PlGF), human
Assay: ELISA

EC50	Binder
0.18 nM	B1
0.2 nM	B2

These binders were tested against Hepatocyte Growth Factor (HGF), human (human, UniProt P14210 32-728) (assay: ELISA).
Sequence of Hepatocyte Growth Factor (HGF), human (P14210 32-728): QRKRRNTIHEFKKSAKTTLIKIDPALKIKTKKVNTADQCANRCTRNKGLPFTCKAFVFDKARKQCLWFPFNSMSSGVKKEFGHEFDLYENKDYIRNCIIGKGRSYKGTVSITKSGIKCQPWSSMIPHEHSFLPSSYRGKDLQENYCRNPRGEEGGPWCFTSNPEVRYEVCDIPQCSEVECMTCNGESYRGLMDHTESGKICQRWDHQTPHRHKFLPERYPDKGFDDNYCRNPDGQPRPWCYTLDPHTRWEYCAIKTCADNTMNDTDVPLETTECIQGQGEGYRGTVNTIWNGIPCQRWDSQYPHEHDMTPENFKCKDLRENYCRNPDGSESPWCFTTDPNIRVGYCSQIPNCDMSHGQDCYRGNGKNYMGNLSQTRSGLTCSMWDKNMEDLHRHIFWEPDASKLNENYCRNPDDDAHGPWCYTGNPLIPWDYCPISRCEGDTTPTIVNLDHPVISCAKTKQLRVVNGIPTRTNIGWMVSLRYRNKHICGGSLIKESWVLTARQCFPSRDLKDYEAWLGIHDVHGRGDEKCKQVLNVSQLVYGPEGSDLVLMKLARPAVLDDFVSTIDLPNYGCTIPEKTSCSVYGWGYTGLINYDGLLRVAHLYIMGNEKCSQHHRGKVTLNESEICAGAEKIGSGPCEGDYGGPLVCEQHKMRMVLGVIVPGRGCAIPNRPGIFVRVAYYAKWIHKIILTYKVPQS

EC50	Binder
0.061 nM	B1
0.057 nM	B2

Target: T2, VEGF (Example 4)
Assay: VEGF-KDR inhibition

IC50	Binder
0.391 nM	B3
0.409 nM	B4
0.589 nM	B5
0.362 nM	B6
0.449 nM	B7
0.429 nM	B8

Each binder was assayed against ErbB3 (UniProt P21860 20-643) (assay: binding).
Sequence of ErbB3 (P21860 20-643): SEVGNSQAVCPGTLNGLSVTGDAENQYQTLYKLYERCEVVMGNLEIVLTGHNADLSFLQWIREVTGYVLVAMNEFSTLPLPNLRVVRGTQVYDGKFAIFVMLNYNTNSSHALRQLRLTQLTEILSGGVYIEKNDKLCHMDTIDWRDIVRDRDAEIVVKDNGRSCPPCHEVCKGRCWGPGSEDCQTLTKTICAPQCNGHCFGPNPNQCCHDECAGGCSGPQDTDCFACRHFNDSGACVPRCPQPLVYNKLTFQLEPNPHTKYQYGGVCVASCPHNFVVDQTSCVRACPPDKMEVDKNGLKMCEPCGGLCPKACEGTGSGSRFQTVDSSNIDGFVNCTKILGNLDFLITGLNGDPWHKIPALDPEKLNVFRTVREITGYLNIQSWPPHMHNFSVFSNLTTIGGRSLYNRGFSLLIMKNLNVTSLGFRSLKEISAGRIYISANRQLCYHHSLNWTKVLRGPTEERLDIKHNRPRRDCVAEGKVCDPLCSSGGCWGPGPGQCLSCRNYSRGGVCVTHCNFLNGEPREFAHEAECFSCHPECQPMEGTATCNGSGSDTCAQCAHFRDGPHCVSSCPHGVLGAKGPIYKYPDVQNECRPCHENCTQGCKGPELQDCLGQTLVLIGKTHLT

EC50	Binder
0.051 nM	B3
0.058 nM	B4
0.048 nM	B5
0.037 nM	B6
0.046 nM	B7
0.05 nM	B8

Target: T2, VEGF (Example 4)
Assay: binding

EC50	Binder
0.016 nM	B3
0.012 nM	B4
0.012 nM	B5
0.013 nM	B6
0.015 nM	B7
0.015 nM	B8
